From PMC11535432

Target: inactive mutant of SARS-CoV-2 main protease M^pro (His41Ala, Cys145Ala) (SARS-CoV-2)
Test: native MS

Substance: substrate peptide nsp5/6 (11-mer, P6 to P5') (from UniProt P0DTD1 3564-3574)
- stoichiometry N (peptide per M^pro dimer): < 2

Substance: substrate peptide nsp14/15 (11-mer, P6 to P5') (from UniProt P0DTD1 6447-6457)
- stoichiometry N (peptide per M^pro dimer): < 2
